Test results: PMC8769934 (Cell Reports, 2022)

B1: N-612-004 Fab (Fab, V domains shown)
VH: EVQLVESGGGLVQPGGSLRLSCAASGFTFSSYYMHWVRQAPGKGLEWVSAISGSGGYTYYADSVKGRFTISRDNSKNTLYLQMNSLRAEDTAVYYCARDRDHAYDWGFDVWGQGTLVTVSS
VL: DIQMTQSPSSLSASVGDRVTITCQASQDISNYLNWYQQKPGKAPKLLIYDASNLETGVPSRFSGSGSGTDFTFTISSLQPEDIATYYCQQWADWPLTFGQGTKVEIK
B2: N-612-004 (IgG1) (antibody, V domains shown)
VH: B1 VH
VL: B1 VL

Columns and labels:
dissociated S1 protomer = dissociated S1 protomer (SARS-CoV-2, Wuhan-Hu-1, stabilised); test: cryo-EM structure
[1] = target: recombinant S1 domain containing B.1.1.7 mutations (SARS-CoV-2 B.1.1.7 (Alpha), strain); test: BLI

Binder | binding result (dissociated S1 protomer) | fold reduction of binding affinity against S1 [1] [fold]
B1 | binds | 
B2 |  | ~3
